The source of these data is publication PMC3021122.

The target of this assay is Shigella flexneri Spa15 (residues 1-133), N-terminal His tag, unlabelled (Shigella flexneri) (UniProt P35530). Put plainly: multi-angle laser light scattering; co-purified Spa15:IpgB1 complex; data not shown.

In turn, “Shigella flexneri IpgB1 (residues 1-208) (natural protein)” had a stoichiometry N (Spa15 per IpgB1) of 2.
